Assay results from US20150267232A1, “IN VIVO AND IN VITRO CARBENE INSERTION AND NITRENE TRANSFER REACTIONS CATALYZED BY HEME ENZYMES” (California Institute of Technology, priority 2012, published 2015).
Positions count from the first letter of the chain named. Numbers in names are those of the source.

B1: 9-10A TS: V78A, P142S, T175I, A184V, S226R, H236Q, E252G, A290V, L353V, I366V, E442K (protein, listed as Bacillus megaterium)
chain: TIKEMPQPKTFGELKNLPLLNTDKPVQALMKIADELGEIFKFEAPGRVTRYLSSQRLIKEACDESRFDKNLSQALKFARDFAGDGLFTSWTHEKNWKKAHNILLPSFSQQAMKGYHAMMVDIAVQLVQKWERLNADEHIEVSEDMTRLTLDTIGLCGFNYRFNSFYRDQPHPFIISMVRALDEVMNKLQRANPDDPAYDENKRQFQEDIKVMNDLVDKIIADRKARGEQSDDLLTQMLNGKDPETGEPLDDGNIRYQIITFLIAGHETTSGLLSFALYFLVKNPHVLQKVAEEAARVLVDPVPSYKQVKQLKYVGMVLNEALRLWPTAPAFSLYAKEDTVLGGEYPLEKGDEVMVLIPQLHRDKTVWGDDVEEFRPERFENPSAIPQHAFKPFGNGQRACIGQQFALHEATLVLGMMLKHFDFEDHTNYELDIKETLTLKPKGFVVKAKSKKIPLGGIPSPSTEQSAKKVRKKAENAHNTPLLVLYGSNMGTAEGTARDLADIAMSKGFAPQVATLDSHAGNLPREGAVLIVTASYNGHPPDNAKQFVDWLDQASADEVKGVRYSVFGCGDKNWATTYQKVPAFIDETLAAKGAENIADRGEADASDDFEGTYEEWREHMWSDVAAYFNLDIENSEDNKSTLSLQFVDSAADMPLAKMHGAFSTNVVASKELQQPGSARSTRHLEIELPKEASYQEGDHLGVIPRNYEGIVNRVTARFGLDASQQIRLEAEEEKLAHLPLAKTVSVEELLQYVELQDPVTRTQLRAMAAKTVCPPHKVELEALLEKQAYKEQVLAKRLTMLELLEKYPACEMKFSEFIALLPSIRPRYYSISSSPRVDEKQASITVSVVSGEAWSGYGEYKGIASNYLAELQEGDTITCFISTPQSEFTLPKDPETPLIMVGPGTGVAPFRGFVQARKQLKEQGQSLGEAHLYFGCRSPHEDYLYQEELENAQSEGIITLHTAFSRMPNQPKTYVQHVMEQDGKKLIELLDQGAHFYICGDGSQMAPAVEATLMKSYADVHQVSEADARLWLQQLEEKGRYAKDVWAG
modifications: cytochrome P450NADPH-P-450 reductase precursor, cytochrome P450 (BM3), CYP102A1
notes: V78A, P142S, T175I, A184V, S226R, H236Q, E252G, A290V, L353V, I366V, E442K
B2: 9-10A TS F87A: 9-10A TS + F87A (protein, listed as Bacillus megaterium)
chain: B1 chain with F87A
modifications: cytochrome P450NADPH-P-450 reductase precursor, cytochrome P450 (BM3), CYP102A1
B3: CYP102A3: CYP102A3, related P450 from Bacillus subtilis (protein, UniProt O08336 1-1054, looked up)
Bifunctional cytochrome …: MKQASAIPQPKTYGPLKNLPHLEKEQLSQSLWRIADELGPIFRFDFPGVSSVFVSGHNLVAEVCDEKRFDKNLGKGLQKVREFGGDGLFTSWTHEPNWQKAHRILLPSFSQKAMKGYHSMMLDIATQLIQKWSRLNPNEEIDVADDMTRLTLDTIGLCGFNYRFNSFYRDSQHPFITSMLRALKEAMNQSKRLGLQDKMMVKTKLQFQKDIEVMNSLVDRMIAERKANPDENIKDLLSLMLYAKDPVTGETLDDENIRYQIITFLIAGHETTSGLLSFAIYCLLTHPEKLKKAQEEADRVLTDDTPEYKQIQQLKYIRMVLNETLRLYPTAPAFSLYAKEDTVLGGEYPISKGQPVTVLIPKLHRDQNAWGPDAEDFRPERFEDPSSIPHHAYKPFGNGQRACIGMQFALQEATMVLGLVLKHFELINHTGYELKIKEALTIKPDDFKITVKPRKTAAINVQRKEQADIKAETKPKETKPKHGTPLLVLFGSNLGTAEGIAGELAAQGRQMGFTAETAPLDDYIGKLPEEGAVVIVTASYNGAPPDNAAGFVEWLKELEEGQLKGVSYAVFGCGNRSWASTYQRIPRLIDDMMKAKGASRLTAIGEGDAADDFESHRESWENRFWKETMDAFDINEIAQKEDRPSLSITFLSEATETPVAKAYGAFEGIVLENRELQTAASTRSTRHIELEIPAGKTYKEGDHIGILPKNSRELVQRVLSRFGLQSNHVIKVSGSAHMAHLPMDRPIKVVDLLSSYVELQEPASRLQLRELASYTVCPPHQKELEQLVSDDGIYKEQVLAKRLTMLDFLEDYPACEMPFERFLALLPSLKPRYYSISSSPKVHANIVSMTVGVVKASAWSGRGEYRGVASNYLAELNTGDAAACFIRTPQSGFQMPNDPETPMIMVGPGTGIAPFRGFIQARSVLKKEGSTLGEALLYFGCRRPDHDDLYREELDQAEQDGLVTIRRCYSRVENEPKGYVQHLLKQDTQKLMTLIEKGAHIYVCGDGSQMAPDVERTLRLAYEAEKAASQEESAVWLQKLQDQRRYVKDVWTGM
B4: WT A328V: P450BM3 variant: A328V (protein, listed as Bacillus megaterium)
chain: TIKEMPQPKTFGELKNLPLLNTDKPVQALMKIADELGEIFKFEAPGRVTRYLSSQRLIKEACDESRFDKNLSQALKFVRDFAGDGLFTSWTHEKNWKKAHNILLPSFSQQAMKGYHAMMVDIAVQLVQKWERLNADEHIEVPEDMTRLTLDTIGLCGFNYRFNSFYRDQPHPFITSMVRALDEAMNKLQRANPDDPAYDENKRQFQEDIKVMNDLVDKIIADRKASGEQSDDLLTHMLNGKDPETGEPLDDENIRYQIITFLIAGHETTSGLLSFALYFLVKNPHVLQKAAEEAARVLVDPVPSYKQVKQLKYVGMVLNEALRLWPTVPAFSLYAKEDTVLGGEYPLEKGDELMVLIPQLHRDKTIWGDDVEEFRPERFENPSAIPQHAFKPFGNGQRACIGQQFALHEATLVLGMMLKHFDFEDHTNYELDIKETLTLKPEGFVVKAKSKKIPLGGIPSPSTEQSAKKVRKKAENAHNTPLLVLYGSNMGTAEGTARDLADIAMSKGFAPQVATLDSHAGNLPREGAVLIVTASYNGHPPDNAKQFVDWLDQASADEVKGVRYSVFGCGDKNWATTYQKVPAFIDETLAAKGAENIADRGEADASDDFEGTYEEWREHMWSDVAAYFNLDIENSEDNKSTLSLQFVDSAADMPLAKMHGAFSTNVVASKELQQPGSARSTRHLEIELPKEASYQEGDHLGVIPRNYEGIVNRVTARFGLDASQQIRLEAEEEKLAHLPLAKTVSVEELLQYVELQDPVTRTQLRAMAAKTVCPPHKVELEALLEKQAYKEQVLAKRLTMLELLEKYPACEMKFSEFIALLPSIRPRYYSISSSPRVDEKQASITVSVVSGEAWSGYGEYKGIASNYLAELQEGDTITCFISTPQSEFTLPKDPETPLIMVGPGTGVAPFRGFVQARKQLKEQGQSLGEAHLYFGCRSPHEDYLYQEELENAQSEGIITLHTAFSRMPNQPKTYVQHVMEQDGKKLIELLDQGAHFYICGDGSQMAPAVEATLMKSYADVHQVSEADARLWLQQLEEKGRYAKDVWAG
modifications: cytochrome P450NADPH-P-450 reductase precursor, cytochrome P450 (BM3), CYP102A1

Assay: P450BM3 compilation plate screen (GC, cyclopropane peaks)
Type: biochemical
Conditions: (R,S)-(S,R); chiral β-CDX GC; P450BM3 variants

Molecule	ee (cis)
B1	−54
B2	5
B3	−8

Same assay, conditions: diastereomeric excess = ([cis] − [trans])/([cis] + [trans]); P450BM3 variants

Molecule	de
B4	−100
B1	−75
B2	−60
B3	−74

Same assay, conditions: sum of the area of the cyclopropane peaks over the area of the internal standard; P450BM3 variants

Molecule	Absolute activity
B4	0.00083
B1	0.00192
B2	0.001546
B3	0.004053
